# Experimental data reported in US20230312753A1 (IMMUNORIZON, published 2023).
# T1: h5T4-His (recombinant human 5T4) (human, UniProt Q13641 32-355, limits assumed)
# T1 construct: Bought protein; also called recombinant 5T4
# T1 sequence (looked up): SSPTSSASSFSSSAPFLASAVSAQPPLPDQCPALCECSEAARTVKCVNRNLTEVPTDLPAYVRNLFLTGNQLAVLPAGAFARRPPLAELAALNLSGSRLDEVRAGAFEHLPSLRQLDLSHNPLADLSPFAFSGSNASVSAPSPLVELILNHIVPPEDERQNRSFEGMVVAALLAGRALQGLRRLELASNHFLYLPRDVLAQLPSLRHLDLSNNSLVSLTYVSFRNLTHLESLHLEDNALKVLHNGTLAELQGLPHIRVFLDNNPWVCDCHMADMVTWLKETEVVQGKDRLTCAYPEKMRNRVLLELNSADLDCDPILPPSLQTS
# B1: IM-1062 Tribody (other)
# heavy: GGSGGSEVQLVESGGGLVQPGGSLRLSCAASGFTFNTYAMNWVRQAPGKGLEWVARIRSKYNNYATYYADSVKDRFTISRDDSKNTLYLQMNSLRAEDTAVYYCVRHGNFGNSYVSWFAYWGQGTMVTVSSASTKGPSVFPLAPSSKSTSGGTAALGCLVKDYFPEPVTVSWNSGALTSGVHTFPAVLQSSGLYSLSSVVTVPSSSLGTQTYICNVNHKPSNTKVDKRVEPKSCPPCGGGGSDIQMTQSPSSLSASVGDRVTITCRASENIYSYLAWYQQKPGKAPKLLIYNAKTLAEGVPSRFSGSGSGTDFTLTISSLQPEDFATYYCQHHYGTPRTFGGGTKVEIKGGGGSGGGGSGGGGSGGGGSQVQLVQSGAEVKKPGASVKVSCKASGYTFTSYWMNWVRQAPGQGLEWMGRIDPYDSETHYAQKLQGRVTMTTDTSTSTAYMELRSLRSDDTAVYYCARGGYDFDVGTLYWFFDVWGQGTTVTVSS
# light: GGSGGSQAVVTQEPSLTVSPGGTVTLTCRSSTGAVTTSNYANWVQQKPGQAPRGLIGGTNKRAPGTPARFSGSLLGGKAALTLSGVQPEDEAEYYCALWYSNLWVFGGGTKLTVLGQPKAAPSVTLFPPSSEELQANKATLVCLISDFYPGAVTVAWKADSSPVKAGVETTTPSKQSNNKYAASSYLSLTPEQWKSHRSYSCQVTHEGSTVEKTVAPTECPPCSGGGSDIQMTQSPSSLSASVGDRVTITCRASQGISNYLAWFQQKPGKAPKSLIYRANRLQSGVPSRFSGSGSGTDFTLTISSLQPEDVATYYCLQYDDFPWTFGQGTKLEIKGGGGSGGGGSGGGGSGGGGSQVQLVQSGAEVKKPGASVKVSCKASGYTFTSFWMHWVRQAPGQGLEWMGRIDPNRGGTEYNEKAKSRVTMTADKSTSTAYMELSSLRSEDTAVYYCAGGNPYYPMDYWGQGTTVTVSS
# notes: Tri-specific antibody (Tribody): anti-CD3 epsilon Fab with an anti-5T4 scFv and an anti-NKG2A scFv, no regulatory domain; also called the Tribody format
# Experiments:
# [1] = biological target: T2, NKG2A/CD94 on CHO cells (CHOK1-NKG2A-CD94) (human, UniProt P26715 1-233; Q13241 1-179, limits assumed); assay: competitive FACS receptor-ligand blocking assay on CHOK1-NKG2A-CD94 cells, labelled ligand HLA-E PE (FIG. 49)
# T2 construct: whole, on cells; also called CHO cells over-expressing NKG2A/CD94; CHO cell line over expressing ectopic NKG2A
# [2] = biological target: T3, human CD3 epsilon on cells (Jurkat T cells, endogenous) (human, UniProt P07766 23-207); assay: FACS on Jurkat T cells, endogenous hCD3ε (FIG. 45A)
# T3 construct: whole, on cells; On cells CD3 epsilon stands in the TCR/CD3 complex; only the epsilon chain is named as target; also called hCD3ε on Jurkat; CD3ε expressing cells
# Protocol: (§1) Suspension cultured cells was harvested directly, and adherent cell were digested using TrypLE Express Enzyme (cat: 12604-013, supplier Life technologies). Centrifuge at 1000 rpm for 5 min and discard the supernatant. Cells are suspended at a concentration of 2×10⁶/mL in FACS buffer (2% FBS in PBS) and add 100 µL/well of cell suspension to the plate (cat #3799, supplier Corning). Centrifuging the plates at 2000 rpm for 5 min and discard the supernatant. Re-suspend the cells in 100 µL/well of Tribody set antibodies (400 nM start, 4-fold dilution, 8 point including 0 point) and incubate the plate for 60 min at 4° C. Centrifuge the plate at 2000 rpm, 4° C. for 5 min and discard supernatant. Then wash the cells 3 times with 170 µL FACS buffer. […] The fluorescence intensity of the staining was measured using flow cytometer (BD, FACSVerse). The geometric mean fluorescence intensity (GMFI; median fluorescence intensity (MFI)) of set antibodies staining was calculated (BD FACSuite software). Dose-response curves were generated and EC50s for thetrispecific variants binding were calculated using GraphPad Prism software.
# Results: The expressed trispecific constructs were analyzed for their binding to cells expressing endogenous CD3ε, 5T4 and NKG2A/NKG2D.
# [3] = biological target: T2, NKG2A/CD94 on CHO cells …; assay: FACS on CHO cells over-expressing ectopic NKG2A (NKG2A/CD94 by the legend) (FIG. 45E)
# Protocol: as §1, with “buffer. Re-suspend the cells at 100 µL/well with secondary antibody (goat anti-human Ig Fab-FITC, Cat # 2085-02, Southern biotech) with 1:400 dilution and incubate the plate for 30 min at 4° C. in dark. Centrifuge the plate at 2000 rpm, 4° C. for 5 min and discard supernatant.” for “buffer.”
# [4] = biological target: T4, NKG2A on NK92 cells (endogenous) (UniProt P26715 1-233, limits assumed); assay: FACS on NK92 cells, endogenous NKG2A (FIG. 45C)
# T4 construct: whole, on cells
# Protocol: as §1, with “buffer. Re-suspend the cells at 100 µL/well with secondary antibody (goat anti-human Ig Fab-FITC, Cat # 2085-02, Southern biotech) with 1:400 dilution and incubate the plate for 30 min at 4° C. in dark. Centrifuge the plate at 2000 rpm, 4° C. for 5 min and discard supernatant.” for “buffer.”
# [5] = biological target: T5, NKG2A-CD94-ECD-hFc (human, UniProt P26715 94-233; Q13241 32-179, limits assumed); assay: ELISA on coated NKG2A-CD94-ECD-hFc (FIG. 43C)
# T5 construct: extracellular domain; Lot 20200724002, 'provided by CP'; the two-chain layout here is only the reading of the name; also called human NKG2A (recombinant); NKG2A antigen; not shown: human Fc (hFc)
# Protocol: (§2) Methods: ELISA binding of Tribody/ProTribody antibody constructs to antigens: Dilute target protein (hCD3epsilon-His (cat # 10977-H08S, supplier Sino Biological); h5T4-His (cat# 19845-H08H, supplier Sino Biological); NKG2A-CD94-ECD-hFc, Lot:20200724002, provided by CP; or NKG2D-ECD-hFc, Lot: 20200413002, provided by CP) into PBS with final concentration of 0.01 µg/mL for hCD3epsilon-His, 0.3 µg/mL for h5T4-His, 1 µg/mL for NKG2A-CD94-ECD-hFc and 0.7 µg/mL for hNKG2D-ECD-hFc respectively and coat 100 µL/well on ELISA plate (cat: 9018, supplier Corning) respectively. Incubate O/N, 4° C. The plates were blocked with 250 µL 1% BSA in PBST for 1 hr at 37° C.Wash 4 times with PBST. All the washes are done using Biotek (Elx 405). All the Tribody set antibodies were diluted to 400 nM and make 4-fold serially dilutions (12 points, including 0 point). Add 100 µL/well diluted antibody constructs solution to plate, incubate for 1 hr at 37° C.Wash 4 times with PBST. Add 100 µL/well anti-human kappa light chain-HRP (1:10000), incubate for 0.5 hr at 37° C. Wash 4 times with PBST. 100 µL/well of TMB substrate was added and incubated at room temperature for 5 min. 100 µL/well of 1N HCl to terminate reaction. Plates were read using ELISA plate reader at 450 nm wavelength (instrunet SpectraMax M5e). Data Analysis was performed using Graphpad prism 5 software by using nonlinear regression (curve fit): log (agonist) vs. response, agonist is antibody concentration (nM) and response is OD value.
# [6] = biological target: T1, h5T4-His (recombinant human 5T4); assay: ELISA on coated h5T4-His (FIG. 43B)
# Protocol: as §2
# T2 sequence (P26715 whole entry, chain 1 of 2): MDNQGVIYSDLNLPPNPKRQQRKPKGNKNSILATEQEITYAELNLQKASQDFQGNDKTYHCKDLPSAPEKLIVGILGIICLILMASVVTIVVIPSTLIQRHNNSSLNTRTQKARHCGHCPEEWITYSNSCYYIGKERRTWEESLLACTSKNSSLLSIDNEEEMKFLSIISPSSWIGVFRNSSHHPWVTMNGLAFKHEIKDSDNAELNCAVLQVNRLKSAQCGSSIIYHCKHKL
# T2 sequence (Q13241 whole entry, chain 2 of 2): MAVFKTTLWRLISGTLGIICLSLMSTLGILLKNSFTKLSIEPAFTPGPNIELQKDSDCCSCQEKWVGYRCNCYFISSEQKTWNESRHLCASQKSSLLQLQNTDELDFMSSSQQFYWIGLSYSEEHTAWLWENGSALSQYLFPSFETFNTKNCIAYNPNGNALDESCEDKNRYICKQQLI
# T4 sequence (P26715 whole entry): as the sequence (P26715 whole entry, chain 1 of 2) above
# T5 sequence (P26715 94-233 limits assumed, chain 1 of 2): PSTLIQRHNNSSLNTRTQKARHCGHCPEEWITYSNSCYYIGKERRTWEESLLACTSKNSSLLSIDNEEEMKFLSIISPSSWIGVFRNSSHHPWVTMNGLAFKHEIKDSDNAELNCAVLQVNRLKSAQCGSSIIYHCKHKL
# T5 sequence (Q13241 32-179 limits assumed, chain 2 of 2): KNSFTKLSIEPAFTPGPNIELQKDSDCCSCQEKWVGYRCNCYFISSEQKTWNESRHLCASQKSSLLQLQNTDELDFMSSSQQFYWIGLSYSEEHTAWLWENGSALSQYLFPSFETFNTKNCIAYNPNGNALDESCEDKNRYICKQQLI
# T3 sequence (P07766 23-207): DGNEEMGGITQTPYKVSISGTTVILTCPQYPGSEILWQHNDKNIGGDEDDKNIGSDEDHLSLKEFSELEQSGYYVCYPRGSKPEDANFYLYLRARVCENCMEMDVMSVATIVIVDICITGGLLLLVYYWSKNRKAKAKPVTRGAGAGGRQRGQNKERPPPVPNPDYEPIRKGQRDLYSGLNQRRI
binder,measurement,setting,value
B1,IC50,[1],29 nM
same,EC50,[2],1.1 nM
same,EC50,[3],29 nM
same,EC50,[4],6.5 nM
same,EC50,[5],4.4 nM
same,EC50,[6],45 nM
